# Test results taken from patent EP1298214A2, “Plant thioesterases” (Calgene LLC, priority 1990, dated 1991).
# Assays:
# [1] = test system: Bay seeds extractable C12-preferring acyl-ACP thioesterase and lauroyl-CoA hydrolysis activity; test: Extractable hydrolysis activity at two stages of Bay seed development; assay type: biochemical, Umbellularia californica; details: cpm ether-extractable radioactivity
# Description: (§1) To assay for C12 thioesterase activity the following mixture is incubated at 30° for 30 min: "buffer" comprising 7mM KH2PO4-KOH pH 8, 20% v/v glycerol, 1mM dithiothreitol (DTT), 0.1% v/v Triton X100; sample to be tested for activity in the same or similar buffer as the "extraction buffer" described in Example 2; and 5µl of ^14C-radiolabeled lauroyl-ACP substrate for a total volume of 100µl and final lauroyl-ACP concentration of 0.5µM. Lauroyl-ACP substrate is prepared according to the method of Rock et al (Methods in Enzymology (1981) 72:397-403), using ACP prepared from Escherichia coli by the method of Rock and Cronan (Methods in Enzymology (1981) 71:341-351). The laurate is radiolabeled in the carboxylate group at a specific radioactivity of 50-60µCi/µmol.
# The reaction is stopped by adding 0.5ml cold (0°) 10% v/v acetic acid. The fatty acid product of the hydrolytic enzyme action is extracted away from the unhydrolyzed substrate by adding 1ml diethyl ether and mixing vigorously. After settling for a few minutes the upper ether layer is transferred to 5ml scintillation fluid for determination of radioactivity by liquid scintillation spectrometry. Additional ether extractions may be performed to recover remaining traces of the reaction product for more accurate quantitation of the enzyme activity if desired. The amount of ether-extracted radioactivity is a direct measure of C12-preferring acyl-ACP thioesterase activity, provided the amount of enzyme is not sufficient to hydrolyze more than about 25% of the substrate. With greater activity than this the relationship between radioactivity in the ether layer and the quantity of enzyme becomes markedly nonlinear. The enzyme preparation must then be diluted appropriately to bring the activity into the linear range of the assay.
# Further evidence that the C12-preferring acyl-ACP thioesterase is involved in the biosynthesis of laurate groups that predominate in the Bay seeds comes from a comparison of the extractable activity of the enzyme at two different stages of seed development. As shown in the following table, Table 5, very young seeds, which contain only long-chain fatty acids and insignificant amounts of laurate, yield much less C12-preferring ACP thioesterase than older seeds that have accumulated significant amounts of laurate. Thus it appears that significant activity of this enzyme is only present when the seeds are accumulating laurate. Additionally, there appears to be much less difference in lauroyl-CoA hydrolysis activity, consistent with their being different enzymes as discussed above in Example 5.
# [2] = target: T1, Bay C12-preferring acyl-ACP thioesterase (Umbellularia californica, UniProt Q41635); test: Substrate hydrolysis (ACP versus CoA) by peak gradient-eluted fraction of the ACP column; assay type: biochemical; parameters: The cotyledons from such seeds are dissected from the other seed parts and stored frozen at -70°; This comprises the source tissue for enzyme extraction; from tissue; host or cells: immature seed cotyledons of Umbellularia californica; details: cpm of ether-extractable product
# T1 sequence (Q41635 84-382): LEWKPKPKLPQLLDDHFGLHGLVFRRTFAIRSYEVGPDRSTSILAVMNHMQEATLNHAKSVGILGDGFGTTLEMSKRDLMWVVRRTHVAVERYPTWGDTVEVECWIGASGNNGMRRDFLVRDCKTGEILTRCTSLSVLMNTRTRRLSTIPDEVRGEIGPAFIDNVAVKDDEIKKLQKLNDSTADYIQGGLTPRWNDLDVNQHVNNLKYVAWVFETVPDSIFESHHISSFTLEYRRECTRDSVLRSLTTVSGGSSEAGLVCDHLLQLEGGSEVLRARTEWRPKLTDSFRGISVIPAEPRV
# Description: as §1
# The reaction is stopped by adding 0.5ml cold (0°) 10% v/v acetic acid. […] After settling for a few minutes the upper ether layer is transferred to 5ml scintillation fluid for determination of radioactivity by liquid scintillation spectrometry. Additional ether extractions may be performed to recover remaining traces of the reaction product for more accurate quantitation of the enzyme activity if desired. The amount of ether-extracted radioactivity is a direct measure of C12-preferring acyl-ACP thioesterase activity, provided the amount of enzyme is not sufficient to hydrolyze more than about 25% of the substrate. […]
substance,measurement,setting,value
lauroyl-ACP [12:0-ACP],Hydrolysis / Thioesterase Activity In Assays,[1]; Normal Seeds (2g/cotyledon pair),4704 cpm
same,Hydrolysis / Thioesterase Activity In Assays,[1]; Young Seeds (0.5g/cotyledon pair),376 cpm
same,Activity on Substrate,[2],2772 cpm
